Data set [1] has as its system HeLa Kyoto. The experiment in a line: thermal stability score vs G1/S (z-score of summed log2 fold changes over temperatures); higher = more thermally stable than in G1/S.
The test system of data set [2] is HeLa Kyoto. The experiment in a line: melting temperature (median over replicates), in situ; higher = more thermally stable.
Data set [3] deals with HeLa Kyoto. The experiment in a line: solubility change mitosis vs G1/S (difference of NP-40 vs SDS log2 ratios) (log2 ratio difference); higher = more soluble in mitosis.
Data set [4] relates to HeLa Kyoto. The experiment in a line: solubility in G1/S (NP-40 vs SDS abundance) (log2 ratio); higher = more soluble. The conditions noted are these: cell cycle stage: G1/S.
Where [5] appears, read: cell cycle stage: early G1 (4.5 h after nocodazole release).
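For melting temperature (median over replicates), in situ in this document: HeLa Kyoto cells synchronized by double thymidine or nocodazole block, proteins quantified by TMT10plex mass spectrometry, three independent biological replicates.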
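For solubility change mitosis vs G1/S (difference of NP-40 vs SDS log2 ratios) in this document: synchronized HeLa Kyoto cells (double thymidine block for G1/S, nocodazole release for mitosis), protein amounts in NP-40 versus SDS lysates quantified by mass spectrometry, three biological replicates.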
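For solubility in G1/S (NP-40 vs SDS abundance) in this document: HeLa Kyoto cells arrested at G1/S by double thymidine block, proteins quantified by TMT10plex mass spectrometry in mild NP-40 versus SDS extracts, three biological replicates.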
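For thermal stability score vs G1/S (z-score of summed log2 fold changes over temperatures) in this document: synchronized HeLa Kyoto cells, proteins quantified by TMT10plex mass spectrometry, three biological replicates, mitosis taken 0.5 h after nocodazole release, G1/S directly after double thymidine block.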

For the substance “MEPEEERIRYSQRLRGTMRRRYEDDGISDDEIEGKRTFDLEEKLHTNKYNANFVTFMEGKDFNVEYIQRGGLRDPLIFKNSDGLGIKMPDPDFTVNDVKMCVGSRRMVDVMDVNTQKGIEMTMAQWTRYYETPEEEREKLYNVISLEFSHTRLENMVQRPSTVDFIDWVDNMWPRHLKESQTESTNAILEMQYPKVQKYCLMSVRGCYTDFHVDFGGTSVWYHIHQGGKVFWLIPPTAHNLELYENWLLSGKQGDIFLGDRVSDCQRIELKQGYTFVIPSGWIHAVYTPTDTLVFGGNFLHSFNIPMQLKIYNIEDRTRVPNKFRYPFYYEMCWYVLERYVYCITNRSHLTKEFQKESLSMDLELNGLESGNGDEEAVDREPRRLSSRRSVLTSPVANGVNLDYDGLGKTCRSLPSLKKTLAGDSSSDCSRGSHNGQVWDPQCAPRKDRQVHLTHFELEGLRCLVDKLESLPLHKKCVPTGIEDEDALIADVKILLEELANSDPKLALTGVPIVQWPKRDKLKFPTRPKVRVPTIPITKPHTMKPAPRLTPVRPAAASPIVSGARRRRVRCRKCKACVQGECGVCHYCRDMKKFGGPGRMKQSCVLRQCLAPRLPHSVTCSLCGEVDQNEETQDFEKKLMECCICNEIVHPGCLQMDGEGLLNEELPNCWECPKCYQEDSSEKAQKRKMEESDEEAVQAKVLRPLRSCDEPLTPPPHSPTSMLQLIHDPVSPRGMVTRSSPGAGPSDHHSASRDERFKRRQLLRLQATERTMVREKENNPSGKKELSEVEKAKIRGSYLTVTLQRPTKELHGTSIVPKLQAITASSANLRHSPRVLVQHCPARTPQRGDEEGLGGEEEEEEEEEEEDDSAEEGGAARLNGRGSWAQDGDESWMQREVWMSVFRYLSRRELCECMRVCKTWYKWCCDKRLWTKIDLSRCKAIVPQALSGIIKRQPVSLDLSWTNISKKQLTWLVNRLPGLKDLLLAGCSWSAVSALSTSSCPLLRTLDLRWAVGIKDPQIRDLLTPPADKPGQDNRSKLRNMTDFRLAGLDITDATLRLIIRHMPLLSRLDLSHCSHLTDQSSNLLTAVGSSTRYSLTELNMAGCNKLTDQTLIYLRRIANVTLIDLRGCKQITRKACEHFISDLSINSLYCLSDEKLIQKIS [KDM2A]”, the results for the thermal stability score in the data set with HeLa Kyoto [1] (setting [5]) and in the data set on HeLa Kyoto [1] (cell cycle stage: mitosis) were 0.0512 and -0.325, respectively. Besides, the melting temperature was determined as 52.3 °C in the data set with HeLa Kyoto [2] (cell cycle stage: G1/S) and 50.5 °C with HeLa Kyoto [2] (cell cycle stage: mitosis). The “solubility change mitosis (log2)” value with HeLa Kyoto [3] is 0.642. Besides, in the data set with HeLa Kyoto [4], the “solubility in G1/S (log2)” value was -1.07.
In the case of “MAEGGAADLDTQRSDIATLLKTSLRKGDTWYLVDSRWFKQWKKYVGFDSWDKYQMGDQNVYPGPIDNSGLLKDGDAQSLKEHLIDELDYILLPTEGWNKLVSWYTLMEGQEPIARKVVEQGMFVKHCKVEVYLTELKLCENGNMNNVVTRRFSKADTIDTIEKEIRKIFSIPDEKETRLWNKYMSNTFEPLNKPDSTIQDAGLYQGQVLVIEQKNEDGTWPRGPSTPKSPGASNFSTLPKISPSSLSNNYNNMNNRNVKNSNYCLPSYTAYKNYDYSEPGRNNEQPGLCGLSNLGNTCFMNSAIQCLSNTPPLTEYFLNDKYQEELNFDNPLGMRGEIAKSYAELIKQMWSGKFSYVTPRAFKTQVGRFAPQFSGYQQQDCQELLAFLLDGLHEDLNRIRKKPYIQLKDADGRPDKVVAEEAWENHLKRNDSIIVDIFHGLFKSTLVCPECAKISVTFDPFCYLTLPLPMKKERTLEVYLVRMDPLTKPMQYKVVVPKIGNILDLCTALSALSGIPADKMIVTDIYNHRFHRIFAMDENLSSIMERDDIYVFEININRTEDTEHVIIPVCLREKFRHSSYTHHTGSSLFGQPFLMAVPRNNTEDKLYNLLLLRMCRYVKISTETEETEGSLHCCKDQNINGNGPNGIHEEGSPSEMETDEPDDESSQDQELPSENENSQSEDSVGGDNDSENGLCTEDTCKGQLTGHKKRLFTFQFNNLGNTDINYIKDDTRHIRFDDRQLRLDERSFLALDWDPDLKKRYFDENAAEDFEKHESVEYKPPKKPFVKLKDCIELFTTKEKLGAEDPWYCPNCKEHQQATKKLDLWSLPPVLVVHLKRFSYSRYMRDKLDTLVDFPINDLDMSEFLINPNAGPCRYNLIAVSNHYGGMGGGHYTAFAKNKDDGKWYYFDDSSVSTASEDQIVSKAAYVLFYQRQDTFSGTGFFPLDRETKGASAATGIPLESDEDSNDNDNDIENENCMHTN [USP15]”, the thermal stability score is -0.274 in the data set on HeLa Kyoto [1] (setting [5]) and 0.549 in the data set with HeLa Kyoto [1] (cell cycle stage: mitosis). The melting temperature in the data set on HeLa Kyoto [2] (cell cycle stage: G1/S) turned out to be 49.8 °C; with HeLa Kyoto [2] (cell cycle stage: mitosis), 49.9 °C. The “solubility change mitosis (log2)” value with HeLa Kyoto [3] is -0.118. In addition, the “solubility in G1/S (log2)” value with HeLa Kyoto [4] amounted to 0.00479.
As to GTF3C1, the thermal stability score in the data set with HeLa Kyoto [1] (setting [5]) was determined as 1.22; in the data set on HeLa Kyoto [1] (cell cycle stage: mitosis), 3.47. The melting temperature with HeLa Kyoto [2] (cell cycle stage: G1/S) amounted to 47.5 °C; in the data set on HeLa Kyoto [2] (cell cycle stage: mitosis), 49.4 °C. For the same substance, the “solubility change mitosis (log2)” value in the data set on HeLa Kyoto [3] is -0.00776. For the same substance, the “solubility in G1/S (log2)” value in the data set on HeLa Kyoto [4] is -0.378.
For the substance “MQMSYAIRCAFYQLLLAALMLVAMLQLLYLSLLSGLHGQEEQDQYFEFFPPSPRSVDQVKAQLRTALASGGVLDASGDYRVYRGLLKTTMDPNDVILATHASVDNLLHLSGLLERWEGPLSVSVFAATKEEAQLATVLAYALSSHCPDMRARVAMHLVCPSRYEAAVPDPREPGEFALLRSCQEVFDKLARVAQPGINYALGTNVSYPNNLLRNLAREGANYALVIDVDMVPSEGLWRGLREMLDQSNQWGGTALVVPAFEIRRARRMPMNKNELVQLYQVGEVRPFYYGLCTPCQAPTNYSRWVNLPEESLLRPAYVVPWQDPWEPFYVAGGKVPTFDERFRQYGFNRISQACELHVAGFDFEVLNEGFLVHKGFKEALKFHPQKEAENQHNKILYRQFKQELKAKYPNSPRRC [B4GAT1]”, the thermal stability score stood at 0.621 in the data set with HeLa Kyoto [1] (setting [5]) and 0.329 in the data set with HeLa Kyoto [1] (cell cycle stage: mitosis). The figures for the melting temperature in the data set with HeLa Kyoto [2] (cell cycle stage: G1/S) and with HeLa Kyoto [2] (cell cycle stage: mitosis) were 53.7 °C and 54.1 °C, respectively. Further, in the data set with HeLa Kyoto [3], the “solubility change mitosis (log2)” value turned out to be 0.00523. The “solubility in G1/S (log2)” value in the data set on HeLa Kyoto [4] worked out at 0.284.
As for “MGQSGRSRHQKRARAQAQLRNLEAYAANPHSFVFTRGCTGRNIRQLSLDVRRVMEPLTASRLQVRKKNSLKDCVAVAGPLGVTHFLILSKTETNVYFKLMRLPGGPTLTFQVKKYSLVRDVVSSLRRHRMHEQQFAHPPLLVLNSFGPHGMHVKLMATMFQNLFPSINVHKVNLNTIKRCLLIDYNPDSQELDFRHYSIKVVPVGASRGMKKLLQEKFPNMSRLQDISELLATGAGLSESEAEPDGDHNITELPQAVAGRGNMRAQQSAVRLTEIGPRMTLQLIKVQEGVGEGKVMFHSFVSKTEEELQAILEAKEKKLRLKAQRQAQQAQNVQRKQEQREAHRKKSLEGMKKARVGGSDEEASGIPSRTASLELGEDDDEQEDDDIEYFCQAVGEAPSEDLFPEAKQKRLAKSPGRKRKRWEMDRGRGRLCDQKFPKTKDKSQGAQARRGPRGASRDGGRGRGRGRPGKRVA [PPAN]”, the thermal stability score in the data set on HeLa Kyoto [1] (setting [5]) is -0.721; with HeLa Kyoto [1] (cell cycle stage: mitosis), -2.53. Further, the melting temperature in the data set with HeLa Kyoto [2] (cell cycle stage: G1/S) is 52.2 °C; with HeLa Kyoto [2] (cell cycle stage: mitosis), 52 °C. In the data set on HeLa Kyoto [3], the “solubility change mitosis (log2)” value was 1.07. The “solubility in G1/S (log2)” value in the data set with HeLa Kyoto [4] is -1.97.
Turning to “MAPLLGRKPFPLVKPLPGEEPLFTIPHTQEAFRTREEYEARLERYSERIWTCKSTGSSQLTHKEAWEEEQEVAELLKEEFPAWYEKLVLEMVHHNTASLEKLVDTAWLEIMTKYAVGEECDFEVGKEKMLKVKIVKIHPLEKVDEEATEKKSDGACDSPSSDKENSSQIAQDHQKKETVVKEDEGRRESINDRARRSPRKLPTSLKKGERKWAPPKFLPHKYDVKLQNEDKIISNVPADSLIRTERPPNKEIVRYFIRHNALRAGTGENAPWVVEDELVKKYSLPSKFSDFLLDPYKYMTLNPSTKRKNTGSPDRKPSKKSKTDNSSLSSPLNPKLWCHVHLKKSLSGSPLKVKNSKNSKSPEEHLEEMMKMMSPNKLHTNFHIPKKGPPAKKPGKHSDKPLKAKGRSKGILNGQKSTGNSKSPKKGLKTPKTKMKQMTLLDMAKGTQKMTRAPRNSGGTPRTSSKPHKHLPPAALHLIAYYKENKDREDKRSALSCVISKTARLLSSEDRARLPEELRSLVQKRYELLEHKKRWASMSEEQRKEYLKKKREELKKKLKEKAKERREKEMLERLEKQKRYEDQELTGKNLPAFRLVDTPEGLPNTLFGDVAMVVEFLSCYSGLLLPDAQYPITAVSLMEALSADKGGFLYLNRVLVILLQTLLQDEIAEDYGELGMKLSEIPLTLHSVSELVRLCLRRSDVQEESEGSDTDDNKDSAAFEDNEVQDEFLEKLETSEFFELTSEEKLQILTALCHRILMTYSVQDHMETRQQMSAELWKERLAVLKEENDKKRAEKQKRKEMEAKNKENGKVENGLGKTDRKKEIVKFEPQVDTEAEDMISAVKSRRLLAIQAKKEREIQEREMKVKLERQAEEERIRKHKAAAEKAFQEGIAKAKLVMRRTPIGTDRNHNRYWLFSDEVPGLFIEKGWVHDSIDYRFNHHCKDHTVSGDEDYCPRSKKANLGKNASMNTQHGTATEVAVETTTPKQGQNLWFLCDSQKELDELLNCLHPQGIRESQLKERLEKRYQDIIHSIHLARKPNLGLKSCDGNQELLNFLRSDLIEVATRLQKGGLGYVEETSEFEARVISLEKLKDFGECVIALQASVIKKFLQGFMAPKQKRRKLQSEDSAKTEEVDEEKKMVEEAKVASALEKWKTAIREAQTFSRMHVLLGMLDACIKWDMSAENARCKVCRKKGEDDKLILCDECNKAFHLFCLRPALYEVPDGEWQCPACQPATARRNSRGRNYTEESASEDSEDDESDEEEEEEEEEEEEEDYEVAGLRLRPRKTIRGKHSVIPPAARSGRRPGKKPHSTRRSQPKAPPVDDAEVDELVLQTKRSSRRQSLELQKCEEILHKIVKYRFSWPFREPVTRDEAEDYYDVITHPMDFQTVQNKCSCGSYRSVQEFLTDMKQVFTNAEVYNCRGSHVLSCMVKTEQCLVALLHKHLPGHPYVRRKRKKFPDRLAEDEGDSEPEAVGQSRGRRQKK [BAZ1B]”, the values for the thermal stability score in the data set with HeLa Kyoto [1] (setting [5]) and with HeLa Kyoto [1] (cell cycle stage: mitosis) were 1.09 and -0.274, respectively. In addition, the values for the melting temperature in the data set on HeLa Kyoto [2] (cell cycle stage: G1/S) and in the data set on HeLa Kyoto [2] (cell cycle stage: mitosis) were 50.7 °C and 51 °C, respectively. For the same substance, the “solubility change mitosis (log2)” value with HeLa Kyoto [3] came to 1.24. In the data set on HeLa Kyoto [4], the “solubility in G1/S (log2)” value is -2.14.

These data come from the supplement of paper PMC5998384.
